For test [1], the target named is rat trkC (on E12 rat trigeminal neurons) (rat) (UniProt Q03351). In words: cell-based or functional assay.
For test [2], the target named is mouse trkC (on E11 mouse trigeminal neurons) (mouse) (UniProt Q6VNS1). The test is described as follows: cell-based or functional assay.
Chain of mouse trkC (on E11 mouse trigeminal neurons) (mouse) (Q6VNS1 32-825): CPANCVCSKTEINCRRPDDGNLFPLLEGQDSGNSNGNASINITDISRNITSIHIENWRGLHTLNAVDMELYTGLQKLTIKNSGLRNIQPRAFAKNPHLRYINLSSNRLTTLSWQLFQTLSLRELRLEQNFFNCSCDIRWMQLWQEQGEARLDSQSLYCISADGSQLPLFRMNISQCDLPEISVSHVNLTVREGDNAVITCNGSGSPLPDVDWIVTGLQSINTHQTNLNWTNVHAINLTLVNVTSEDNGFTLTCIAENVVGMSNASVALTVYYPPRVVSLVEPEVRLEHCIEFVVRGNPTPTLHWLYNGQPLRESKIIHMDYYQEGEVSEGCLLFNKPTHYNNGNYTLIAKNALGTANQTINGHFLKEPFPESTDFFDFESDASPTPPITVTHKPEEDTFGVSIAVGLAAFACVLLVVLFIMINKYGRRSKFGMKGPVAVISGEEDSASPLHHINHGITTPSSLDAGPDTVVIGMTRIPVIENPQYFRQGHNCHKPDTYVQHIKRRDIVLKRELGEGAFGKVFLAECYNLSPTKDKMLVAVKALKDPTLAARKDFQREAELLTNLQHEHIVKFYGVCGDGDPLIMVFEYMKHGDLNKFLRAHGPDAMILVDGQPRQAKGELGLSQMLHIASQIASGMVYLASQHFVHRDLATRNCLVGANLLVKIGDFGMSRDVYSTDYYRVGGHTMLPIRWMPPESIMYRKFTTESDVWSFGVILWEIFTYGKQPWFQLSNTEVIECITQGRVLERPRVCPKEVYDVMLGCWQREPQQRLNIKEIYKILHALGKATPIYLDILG

Chain of rat trkC (on E12 rat trigeminal neurons) (rat) (Q03351 32-864): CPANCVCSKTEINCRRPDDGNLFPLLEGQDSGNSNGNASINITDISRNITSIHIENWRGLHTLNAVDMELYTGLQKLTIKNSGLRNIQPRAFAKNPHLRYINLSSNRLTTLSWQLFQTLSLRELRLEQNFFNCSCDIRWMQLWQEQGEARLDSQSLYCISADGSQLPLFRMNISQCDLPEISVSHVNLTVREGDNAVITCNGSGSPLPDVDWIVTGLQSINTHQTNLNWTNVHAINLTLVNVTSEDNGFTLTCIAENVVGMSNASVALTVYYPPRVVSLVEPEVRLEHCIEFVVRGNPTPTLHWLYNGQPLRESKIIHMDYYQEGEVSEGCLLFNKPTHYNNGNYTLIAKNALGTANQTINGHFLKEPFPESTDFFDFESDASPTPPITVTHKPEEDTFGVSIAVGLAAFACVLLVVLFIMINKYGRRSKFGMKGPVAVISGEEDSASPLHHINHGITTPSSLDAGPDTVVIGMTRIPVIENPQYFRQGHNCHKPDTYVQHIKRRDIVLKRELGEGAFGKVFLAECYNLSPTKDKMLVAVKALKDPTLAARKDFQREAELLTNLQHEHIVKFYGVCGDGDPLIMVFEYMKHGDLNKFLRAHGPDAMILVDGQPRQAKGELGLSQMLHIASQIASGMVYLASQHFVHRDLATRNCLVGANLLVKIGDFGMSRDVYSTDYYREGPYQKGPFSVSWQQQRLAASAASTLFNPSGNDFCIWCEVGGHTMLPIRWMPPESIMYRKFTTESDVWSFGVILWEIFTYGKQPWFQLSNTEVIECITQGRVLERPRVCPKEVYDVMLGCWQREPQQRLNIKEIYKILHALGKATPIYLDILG

For neurotrophin-3 (NT-3) (ligand), the survival of trigeminal neurons after 24 hours in culture in test [1] and in test [2] was 0.08 ng/mL in each case.

(Values after patent US20050089521A1.)
